Data on six molecules can be found in PMC5387054, “Zinc-Dependent Transcriptional Regulation in Paracoccus denitrificans”.

The target of data set [1] is T1, Zur (Paracoccus denitrificans) (UniProt A1B9K9).
T1 sequence: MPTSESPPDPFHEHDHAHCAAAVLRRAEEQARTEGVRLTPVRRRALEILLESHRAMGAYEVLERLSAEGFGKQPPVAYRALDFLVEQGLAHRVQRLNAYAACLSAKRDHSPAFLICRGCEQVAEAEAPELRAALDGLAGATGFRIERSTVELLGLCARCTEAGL
The data set is described as follows: EMSA. The note with it: EMSA: 10 mM Tris pH 8.0, 10 mM NaCl, 100 mM K-glutamate, 50 mM KCl, 1 mM DTT, 1.07 ug/ml BSA, 0.1 uM DNA, 0-20 uM Zur, 25 uM ZnCl2, 100 uM EDTA; 30 min room …. (A gel shift assay detects complexes by their altered migration in electrophoresis.)

Data set [2] addresses Paracoccus denitrificans zinc uptake regulator (Zur) (Paracoccus denitrificans PD1222). In words: SEC; Factor Xa cleavage reaction mixture applied to a Hi-Prep Sephacryl S-100 HR column, 20 mM Tris pH 8.0, 150 mM NaCl, calibrated with proteins of 6.5 to 75 kDa. (In general: SEC sorts molecules by how far they enter the pores of the column.)
Another data set concerns the target T2, Zur (Paracoccus denitrificans, UniProt A1B9K9 1-164).
T2 sequence: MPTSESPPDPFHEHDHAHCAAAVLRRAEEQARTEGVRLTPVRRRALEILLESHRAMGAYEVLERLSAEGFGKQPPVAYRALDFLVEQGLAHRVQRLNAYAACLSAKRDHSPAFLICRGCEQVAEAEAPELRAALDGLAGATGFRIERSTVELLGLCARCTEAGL
The data set is described as follows: competition; probe zur/znuA 0.1 uM; 10 uM Zur, 25 uM Zn2+, 100 uM EDTA; 5 uM competitor; shift disrupted, not fully displaced; EMSA: 10 mM Tris pH 8.0, 10 mM NaCl, 100 mM K-glutamate, 50 mM KCl, 1 mM DTT, 1.07 ug/ml BSA, 0.1 uM DNA, 0-20 uM Zur, 25 uM ZnCl2, 100 uM EDTA; 30 min room temperature; 8% native PAGE at 4 C. The conditions noted are these: protein: recombinant; tags: MBP (pMAL-c5X) removed by Factor Xa; chain copies: 2; blunt.

Regarding “AAGAGAGGGTTGAGCCTGCCCGGTAAAGGGCCGGGCGGGATGATCCGCCAGGCGCATGGGCGAAGCCCTCTTGCATCCCCGGGTGGGTAATATAATAACATAACAAAATCTCCGAGGATAACGCTCATGCTCTGCAAACTGCTCGCTT (double strand) [pden1341 promoter]”, the binding result in data set [1] was “binds”.

“GCCGCCCGCTGACCAGATTTCCGCCGGGACCAGCCTGCGCCCGTCCCGGCGCCCTCCCCCGAACCCCATCAAGGAGACTTTCCATGCTCAGACATCTCGCGGGCGCCAGCGCCCTTGCCCTGACCTT (double strand) [aztD promoter (negative control, 128 bp)]”: in data set [1], the binding result is listed as “binds more weakly”.

As to “Paracoccus denitrificans zinc uptake regulator (Zur) (natural protein)”, in data set [2], the stoichiometry N – broadly, a count of units in the complex or per binding partner – was 2. With “AATCACAAAACCGGCGCCTCGGCATTTCCCCGCTGATGCTTTGCCCTCTCGCCGCGGGTCCTGCGGCTTTTCGGACGACCGGCGCGGCATGGCTTGCCGTTCCGGTTTAGTAATGTAATAACATCACCAAAATATCGAGTCCGCTATCCAGTGATGCCCAGAACC (double strand) [aztA promoter]”, the binding entry in data set [1] is “binds”.

“CGGCAAGGACAAGGGAAGAAGGTCGGATCATGGCGAGACTCACTTGCGGAAACGCCAAGGTTATTTATGTTATATCGTAACCCGTCAAGCAAAAATGTAACGATATAACATCATGCCCACTTCGGAATCCCCGCCTGACCCGTTTCACG (double strand) [zur/znuA promoter (149 bp)]”: the binding entry in data set [1] is “binds”.

B1: specific competitor (zur/znuA), 59 bp (dsDNA)
DNA 1: GGGCATGATGTTATATCGTTACATTTTTGCTTGACGGGTTACGATATAACATAAATAAC
DNA 2: GTTATTTATGTTATATCGTAACCCGTCAAGCAAAAATGTAACGATATAACATCATGCCC
On to B1, for which the binding result with Zur is recorded as “binds”.
